The record followed here is US20020034767A1, “Compositions and methods for modulating the activity of G protein-coupled receptor kinases GRK5 and GRK6” (priority 1993, published 2002).

Holding throughout (experiment): cell-based or functional assay
Test [1] has as its target rhodopsin in urea treated rod outer segments (bovine) (UniProt P02699).
The target of test [2] is G protein-coupled receptor kinase GRK6 (human) (human) (UniProt P43250).
Test [3] concerns the target G protein-coupled receptor kinase GRK5 (human) (human) (UniProt P34947).

G protein-coupled receptor kinase GRK6 (human) (human), sequence (P43250 other isoform, or with tags, fused parts or gaps limits assumed): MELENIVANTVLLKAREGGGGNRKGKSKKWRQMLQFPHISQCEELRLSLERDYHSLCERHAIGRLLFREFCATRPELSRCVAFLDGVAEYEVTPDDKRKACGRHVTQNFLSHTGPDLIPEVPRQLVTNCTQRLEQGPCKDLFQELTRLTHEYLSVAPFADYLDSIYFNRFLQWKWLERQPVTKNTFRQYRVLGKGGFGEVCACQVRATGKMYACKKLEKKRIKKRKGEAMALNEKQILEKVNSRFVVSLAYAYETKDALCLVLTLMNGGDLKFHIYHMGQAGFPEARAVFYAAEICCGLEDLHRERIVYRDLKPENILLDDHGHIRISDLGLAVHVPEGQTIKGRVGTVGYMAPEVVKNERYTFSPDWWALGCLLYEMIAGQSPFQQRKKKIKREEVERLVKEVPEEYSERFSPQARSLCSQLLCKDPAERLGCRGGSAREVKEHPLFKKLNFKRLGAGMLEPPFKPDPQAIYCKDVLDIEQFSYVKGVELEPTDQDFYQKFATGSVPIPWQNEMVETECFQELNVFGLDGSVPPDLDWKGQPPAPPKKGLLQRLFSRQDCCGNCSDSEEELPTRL
rhodopsin in urea treated rod outer segments (bovine), sequence (P02699 whole entry): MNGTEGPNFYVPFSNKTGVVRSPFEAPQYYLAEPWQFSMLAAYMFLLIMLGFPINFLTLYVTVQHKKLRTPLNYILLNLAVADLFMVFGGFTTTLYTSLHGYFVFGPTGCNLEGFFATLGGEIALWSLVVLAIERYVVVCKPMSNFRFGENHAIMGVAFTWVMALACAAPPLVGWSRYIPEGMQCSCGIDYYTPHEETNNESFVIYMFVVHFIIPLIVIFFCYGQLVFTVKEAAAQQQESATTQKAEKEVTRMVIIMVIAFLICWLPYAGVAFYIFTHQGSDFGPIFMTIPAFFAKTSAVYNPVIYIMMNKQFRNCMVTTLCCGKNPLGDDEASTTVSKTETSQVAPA
G protein-coupled receptor kinase GRK5 (human) (human), sequence (P34947 whole entry E78G): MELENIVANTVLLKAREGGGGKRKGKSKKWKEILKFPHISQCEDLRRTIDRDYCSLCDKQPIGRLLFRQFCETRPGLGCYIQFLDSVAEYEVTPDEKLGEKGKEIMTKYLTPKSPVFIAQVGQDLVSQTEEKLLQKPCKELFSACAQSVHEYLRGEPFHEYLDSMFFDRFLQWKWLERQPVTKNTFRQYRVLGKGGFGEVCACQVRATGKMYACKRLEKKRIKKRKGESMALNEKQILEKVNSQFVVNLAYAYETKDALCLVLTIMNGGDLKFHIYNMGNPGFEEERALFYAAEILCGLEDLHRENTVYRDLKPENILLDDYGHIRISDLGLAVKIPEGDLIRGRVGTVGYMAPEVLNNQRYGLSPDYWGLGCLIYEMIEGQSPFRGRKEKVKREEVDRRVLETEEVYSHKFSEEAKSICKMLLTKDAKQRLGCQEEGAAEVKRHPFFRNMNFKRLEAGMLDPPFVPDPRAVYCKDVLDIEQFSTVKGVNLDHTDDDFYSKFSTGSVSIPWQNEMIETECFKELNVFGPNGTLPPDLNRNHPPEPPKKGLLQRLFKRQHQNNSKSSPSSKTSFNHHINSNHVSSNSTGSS

“G protein-coupled receptor kinase GRK5 (human) (from UniProt P34947 1-590) (enzyme)”: in test [1], the light-dependent rhodopsin phosphorylation by Sf9 cell supernatant stood at 1120 pmol/min/mg. For the substance “G protein-coupled receptor kinase GRK6 (human) (from UniProt P43250 1-576) (enzyme)”, in test [1], the specific activity of phosphorylation of bleached rhodopsin by Sf9 cell supernatant (pmol/min/mg protein) was 81. In test [2], polyaspartic acid (peptide) showed an IC50 of inhibition of kinase activity of 487 nM and a fold less effective as inhibitor compared to GRK5 of 6 fold.

Consider polyglutamic acid (peptide), for which, in test [2], the IC50 of inhibition of kinase activity is 400 nM and the fold less effective as inhibitor compared to GRK5 turned out to be 16 fold.

polylysine, a 14-16 amino acid peptide: in test [3], the fold activation of kinase activity came out at 2.6 fold. Substance β-adrenergic receptor kinase (enzyme) returned a light-dependent rhodopsin phosphorylation by Sf9 cell supernatant in test [1] of 2470 pmol/min/mg.
